In the data set the target is SSRP1 (Flag) (human, UniProt Q08945 1-709). The data set can be described thus: EMSA. For orientation: Mobility shift assays separate free from complexed probe on a gel.

The text below walks through data of publication PMC5389579.

SSRP1 (Flag), sequence (Q08945 whole entry): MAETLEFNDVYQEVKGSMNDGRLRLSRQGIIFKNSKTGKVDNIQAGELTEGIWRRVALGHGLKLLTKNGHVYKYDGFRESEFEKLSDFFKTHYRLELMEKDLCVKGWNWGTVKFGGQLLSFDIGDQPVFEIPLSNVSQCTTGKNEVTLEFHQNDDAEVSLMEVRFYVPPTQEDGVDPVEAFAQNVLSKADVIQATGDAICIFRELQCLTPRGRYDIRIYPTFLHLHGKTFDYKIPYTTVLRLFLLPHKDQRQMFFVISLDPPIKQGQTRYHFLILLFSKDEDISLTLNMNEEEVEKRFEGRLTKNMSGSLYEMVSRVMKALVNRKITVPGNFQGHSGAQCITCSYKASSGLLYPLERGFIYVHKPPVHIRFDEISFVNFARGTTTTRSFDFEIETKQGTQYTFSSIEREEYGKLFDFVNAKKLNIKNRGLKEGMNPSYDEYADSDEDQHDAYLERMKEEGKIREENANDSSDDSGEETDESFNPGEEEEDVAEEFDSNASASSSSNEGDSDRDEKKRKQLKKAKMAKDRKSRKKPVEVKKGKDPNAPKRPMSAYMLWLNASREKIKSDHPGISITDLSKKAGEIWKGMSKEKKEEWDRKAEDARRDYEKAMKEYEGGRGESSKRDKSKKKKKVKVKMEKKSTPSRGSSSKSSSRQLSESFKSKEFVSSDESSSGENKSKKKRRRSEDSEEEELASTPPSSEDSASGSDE

B1: AC probe (dsDNA)
DNA 1: ACACACACACACACACACACACACACACACACACAC
DNA 2: GTGTGTGTGTGTGTGTGTGTGTGTGTGTGTGTGTGT
As for B1, the binding result is recorded as “binds”.
